From US20230374114A1 (Dana-Farber, published 2023)

How the values were obtained:
[1] = target: spike protein on live SARS-CoV-2 (isolate USA-WA1/2020) (SARS-CoV2, UniProt P0DTC2 14-1273); test: cell-based or functional assay
WT Spike [2] = target: WT Spike (SARS-CoV2, UniProt P0DTC2 16-1213)
WT Spike [3] = target: WT Spike (SARS-CoV-2, UniProt P0DTC2 16-1213)

Binder	Kd (WT Spike [2]) [pM]	other results
Ab 14 IgG (antibody, V domains shown) VH: QVQLQQSGPGLVKPSQTLSLTCAISGDSVSSNSAAWNWIRQSPARGLEWLGRTYYRSRWYNDYAISMKSRITINPDTSKNQFSLQLESVTPEDTAVYYCAREIRGFDYWGQGTLVTVSS VL: QSVLTQPPSASGSPGQSVTISCTGTSSDVGAYNFVSWYQHHPGKAPKLIIYDFNKRPSGVPDRFSGSKSGNTASLTVSGLQADDEADYYCSSYAGSNNFDVVFGGGTKLTVL		shift of the neutralization IC50 of the IgG against the scFv-Fc [1]: 40 fold
S1-RBD-R3-T1-G1 Ab (Ab_35) (scFv, V domains shown) VH: EVQLVQSGAEVKKPGESLRISCKASGYSFTSNWIGWVRQMPGKGLEWMGSIFPGDSDTKYSPSFQGQVTISADRSISTAYLQWSGLKASDTAMYYCARESYNAYGSWGQGTLVTVSS VL: not shown	8.9	
RBD-R3-E1-F5 Ab (Ab_36) (scFv, V domains shown) VH: QVQLQQSGPGLVKPSQTLSLTCAIFGDSVTSNSAAWNWIRQSPSRGLEWLGRTYYSSKWYNDYAVSVKSRVTINADTSKNQLSLQLNSVTPEDTAVYYCARGWLRLSFDPWGQGTLVTVSS VL: NFMLTQPHSVSESPGKTVTISCTGSSGSIASNYVQWLQQRLGSAPTTVIYEDNQRPSGVPDRFSGSIDSSSNSASLTISGLKTEDEADYYCQSYDPNNHGVVFGGGTKLTVL	9.01	
S1-RBD-R3-E1-E8 Ab (Ab 37) (scFv, V domains shown) VH: QVQLVQSGAEVKKPGASVKVSCKASGYTFTSYGISWVRQAPGQGLEWMGWISTYNGNTNYAQKLQGRVTMTTDTSTSTAYMEVRSLRSDDTAVYYCARDVFGHFDYWGQGTLVTVSS VL: NFMLTQPHSVSESPGKTVLISCTRSSGNIATNYVQWYQQRPGSAPTTVIYEDNQRPSGVPDRFSGSIDSSSNSASLTISGLKTEDEADYYCKSYDDGNHVFGGGTKLTVL	9	
Ab 38 (scFv, V domains shown) VH: QVTLKESGPTLVKPTQTLTLTCTFSGFSLTTSGVSVGWIRQPPGKALEWLALIHWDDDKRYSPSLRSRLTITRDTSKNQVVLTVTDMDPADTGTYYCASFIMTVYAEYFEDWGQGTLVTVSS VL: EIVLTQSPATLSVSPGERATLSCRASQSVSSNLAWYQQKPGQAPRLLMYDVSTRATGIPARFSGSGSGTEFSLTISSLQSEDFAVYYCQQRGAWPLTFGGGTKVEIK	7.86	
S1-RBD-R3-T1-F9 Ab (Ab_39) (scFv, V domains shown) VH: QVTLKESGPTLVKPTQTLTLTCTLSGVSLDTIGMRVSWIRQPPGKALEWLARIDWDDDKFYSTALKTRLTISKDTSKNQVVFTMTSMDPVDTATYYCARSGLLYDLDVWGRGTLVTVSS VL: QSVVTQPPSVSGAPGQRVTISCTGSDSDIGANFVQWYQQLPGTAPKLLIWRNTNRPSGVPDRFSASKSGTSASLAITGLQAEDEADYFCQSYDSSLSAYVFGGGTKVTVL	2.04	
S1-R3-T1-H7 (Ab12) (scFv, V domains shown) VH: EVQLVESGPGVVSPSATLFLTCSVSGGSIRTHSWNWIRQPPGKPLEWIGFIHHSGATNKNPSLKSRVTISSDTSKNEFSLTLTSVTAADTAVYYCARGPGILSYWSRGTLVTVSS VL: not shown		Kd (WT Spike [3]): 8.31 pM
